Experimental data reported in patent US20150377899A1.

How the values were obtained:
[1] = target: natural human Fc region prepared by papain digestion of human monoclonal IgG (Chugai Pharmaceutical Co., Ltd.) (human); assay: SPR Biacore T100, Fc immobilized on CM5, peptide as analyte
[2] = target: natural human Fc region prepared by papain digestion of human monoclonal IgG (Chugai Pharmaceutical Co., Ltd.) (human); assay: SPR, KD compared
[3] = target: natural human Fc region prepared by papain digestion of human monoclonal IgG (Chugai Pharmaceutical Co., Ltd.) (human); assay: SPR Biacore T100, Fc immobilized on CM5, polypeptide as analyte
[4] = target: natural human Fc region prepared by papain digestion of human monoclonal IgG (Chugai Pharmaceutical Co., Ltd.) (human); assay: SPR Biacore T100, Fc immobilized on CM5, Scatchard plot of equilibrium values
[5] = target: human Fc region manufactured by Jackson ImmunoResearch Laboratories, Inc. (human); assay: SPR Biacore T100, Fc immobilized on CM5, peptide as analyte
[6] = target: human Fc region manufactured by Jackson ImmunoResearch Laboratories, Inc. (human); assay: SPR, KD compared

Row | Binder | Kd [1] | Kd [3] | other results
1 | p17-2 peptide (designed binder) GPGISAFSPGRGVYDPETGTWYDAAWHLGELVWATYYDPETGTWEPDWQRMLGQ | 1.6 nM |  | fold improvement in binding affinity against the FcIII-Ala peptide [2]: 26000 fold; fold improvement in binding affinity against the pep24 peptide [2]: 138 fold
2 | p17_R50A (designed binder) GPGISAFSPGRGVYDPETGTWYDAAWHLGELVWATYYDPETGTWEPDWQAMLGQ |  | 7.8 nM | 
3 | p17_M51A (designed binder) GPGISAFSPGRGVYDPETGTWYDAAWHLGELVWATYYDPETGTWEPDWQRALGQ |  | 180 nM | fold reduction in binding affinity against p17-2 [2]: > 100 fold
4 | p17_D47A (designed binder) GPGISAFSPGRGVYDPETGTWYDAAWHLGELVWATYYDPETGTWEPAWQRMLGQ |  | 45 nM | 
5 | p17_W48A (designed binder) GPGISAFSPGRGVYDPETGTWYDAAWHLGELVWATYYDPETGTWEPDAQRMLGQ |  | 200 nM | fold reduction in binding affinity against p17-2 [2]: > 100 fold
6 | DAAWHLGELVWATYYDPETGTWEPDWQRMLGQ [pep24 peptide] |  |  | fold higher affinity against the particular sequence (FcIII-Ala) [2]: 190 fold
7 | DAAWHLGELVWAT [FcIII-Ala peptide] |  |  | Kd [4]: 42000 nM
8 | GVVRQWSGGGGSGGGGRSSIAYGGG [2A1Gly peptide] |  |  | Kd [5]: 23000 nM; binding affinity as a fraction of that of the 2A1 peptide [6]: < 0.001

More lines, main results first:

Row | Kd [1] | Kd [3] | Binder | other results
9 |  | 5.6 nM | p17_P46A (designed binder) GPGISAFSPGRGVYDPETGTWYDAAWHLGELVWATYYDPETGTWEADWQRMLGQ | 
10 | 100 nM |  | DAAWHLGELVWATYYDPETGTWLPDWQTMAQK [pep21 peptide] | fold improvement in affinity against the FcIII-Ala peptide [2]: 420 fold
11 | 510 nM |  | DAAWHLGELVWATYYDPETGTWAPDWRLMQGQ [pep11 peptide] | 
12 | 120 nM |  | DAAWHLGELVWATYYDPETGTWQPDWLYMTTR [pep14 peptide] | 
